Test results taken from a protein production outcome set (Wang et al. 2014).

Test: label from the status in PepcDB records
For “MARTITFDIPSQYKLVDLIGEGAYGTVCSAIHKPSGIKVAIKKIQPFSKKLFVTRTIREIKLLRYFHEHENIISILDKVRPVSIDKLNAVYLVEELMETDLQKVINNQNSGFSTLSDDHVQYFTYQILRALKSIHSAQVIHRDIKPSNLLLNSNCDLKVCDFGLARCLASSSDSRETLVGFMTEYVATRWYRAPEIMLTFQEYTTAMDIWSCGCILAEMVSGKPLFPGRDYHHQLWLILEVLGTPSFEDFNQIKSKRAKEYIANLPMRPPLPWETVWSKTDLNPDMIDLLDKMLQFNPDKRISAAEALRHPYLAMYHDPSDEPEYPPLNLDDEFWKLDNKIMRPEEEEEVPIEMLKDMLYDELMKTME”, the protein production was “failed”. With “MARTRSADYENIRDTIIERAAAMFARQGYSETSIGDIARACECSKSRLYHYFDSKEAVLRDMLTTHVDSLLERCRQVLYGSNEPKTRFLQIVKLFLEIYATSRDRHVVMLTCLDALPEDQRKALIAKQRELIAYVRDALLQLRPDMAANRTLAHVDTMLFFGMINWTYTWYKADGSVSPDALAERTVQLFLDGYLNLLSA” the protein production was “not failed”. With “MASATEDPVLERYFKGHKAAITSLDLSPNGKQLATASWDTFLMLWNFKPHARAYRYVGHKDVVTSVQFSPHGNLLASASRDRTVRLWIPDKRGKFSEFKAHTAPVRSVDFSADGQFLATASEDKSIKVWSMYRQRFLYSLYRHTHWVRCAKFSPDGRLIVSCSEDKTIKIWDTTNKQCVNNFSDSVGFANFVDFNPSGTCIASAGSDQTVKVWDVRVNKLLQHYQVHSGGVNCISFHPSGNYLITASSDGTLKILDLLEGRLIYTLQGHTGPVFTVSFSKGGELFASGGADTQVLLWRTNFDELHCKGLTKRNLKRLHFDSPPHLLDIYPRTPHPHEEKVETVEINPKLEVIDLQISTPPVMDILSFDSTTTTETSGRTLPDKGEEACGYFLNPSLMSPECLPTTTKKKTEDMSDLPCESQRSIPLAVTDALEHIMEQLNVLTQTVSILEQRLTLTEDKLKDCLENQQKLFSAVQQKS” the protein production was “failed”. For “MASDINAKLRQKQYEAAVLEFAGDRKGYFVVASDDPQFASLLRQTLTKHLAIPGDAMSTVANPDHILRELKNVTMRRKTVLLFLERILEGRDTNLLVRQLKSAYPDLKIIVITGETERNRLVLLHEVGADNFITKPVSMNTLIEKMAFTIKPLGKLGQLIDQAREFVHQNLPEQGIKLCRQILELKPGSAAGYLVMGEAYQHLGKLDKARECYEEASRNAELYLEPLRRLADIHGEMGEPTEQLRYLERLDQLSPLNVERKVDMGAIHLELGNQEKADELFDTAVQQATREALSYIADISGRIAGIYNGRDPQRAEHFLRRALDAKGDMLDASDLDTFNRLGIALRRQGKWQEALTEYHKALRVAPEDENLFYNMGMACAEGRDFREARANMLKALTINPELPRRDPVMAYNIGLVFMRAGGREYAERCLNIALELDPGFTKAREALERLG”, the protein production was “failed”. With “MASDREEFNLCGPTHLTTVDWGNEDHQRCVAACLVQGIYIVEQDRQLKREGTEALASPWWESFNFKLIRHLKDDADFSIFGGIFEYKSLQPDVVDSGVPRYVIAFRGTLTKADSITRDIELDIHIIRNGLHRTSRFEIAMQAVRSMADSVGASSFWLTGHSLGAAMALLAGKTMGKSGVYIKSLLFNPPYVSPPIERIANERVRHGIRFAGSLITAGLALSRTLKQTQQPQQQQLQLQNLTEDPLEALSSWLPNIHVNPGDHLCSEYIGFFEHRGNMEQIGYGAGIVERMAMQHSLGGLLMDAMGVSNAVEVEEPVHVIPSANLIVNKTISEDYKDAHGIHQWWRDDQDLVSHIYMYK” the protein production was “failed”. In the case of “MASEHFDMWESRFSADGYLFGTAPNAFLASCHDLLPKQGRALAIADGEGRNGVFLAECGLSVLSVDFSPTAQAKAHKLAAERGVTIETRTADLLSWQWPGGFDVIAGIFFQFVEPEQRPQIFQQIRAALKPGALLLIEGYRPKQLAYKTGGPSRAENLYTRELLEQAFGDFDNLSIRERDSEIVEGAGHAGLSALIDLIGWKPKLEHHHHHH”, the protein production is reported as “not failed”. For “MASEWNVAAERHSALHYLYRLGDAVLIAVCGIAMGALYFHDGIRSAAPVNGFLTMLCALGALLIFPAFGIYESWRGRSRAVLGLRIAAAWTLVFISGLLGAFLIHQIGAVSRVWSMGWFIGTGVMLALSRVVMFRMLANVRQQGINAKRVLIFGYGPLGREMYDRVQHFRDAGYRVVGVYDEESDAIPYDVTPLRQIEEVSGFVRDHGVREIWLTLPMAACRDLSGVVRQFRNEMIDIRWVPDVSSVELLGHRFSEFMGLPVIDLNSPPVSGITGVVKASFDRVFSLGVLVCLSPLLLLIAAMVKLSSPGPVLFRQQRLGIDGQPFNVYKFRTMRQHQDGGGVTQAVRGDPRVTRVGAFLRRTSLDELPQFINVLRGEMSVVGPRPHAMEHNELYKELIDRYMLRHRVKPGITGWAQINGLRGQTDTVEKMRKRIEFDIYYIQHWSFQLDLRIILRTALHGWTGTTAY”, the protein production was “failed”. In the case of “MASFCNSWKRKHNEAIKLSEEIDGMILERSSLAETSSYARGHASYMRRKITILANGVQTLKNLLAESQGKSISAKEMSRCKDMVEDLRSKAYQMASALDMLKFSNIGSLLGQDDIMSRVIDMDNQEIVGFQRTTMKGKLKGVMHLKREALAMNMELGLQTRLIDRLDHHVDVSASDVEELQRSIDTGVCMTLLLSVVVVVFGLSEFVKFGRRRILG”, the protein production is reported as “failed”. In the case of “MASFPHPGSVTVCEINRDLITAQNLSDERAQETYGKVLGMVFSPVSFDSTPSSLQENEGQENGDKASGESKGLVATLQMKVADSLKQILQPTDVTLLSEIDLQGVSWHQGKHIIAFISGANQVTIRDYEDKDEKEPCILTSDSQRNVKALEWRPNGGKSLSIACRGGICIWAASYPGNMALVRSGGSALRGSLSRGSGTRWILVDFLRCQNDEQISALSWSPCGRYLASASYDSSSFTIWDVSQGAGTPIRRGLGGISMLKWSPTGDYFFAARFDGTFCLWETNTWTSEPWSLSSGSGSVTGAIWDPEGRFILISFSKSSTLGSVHFSSKPPSLDAHLLPVELPEIASLTGCEGIEKIAWDASGERLAVSYKGGDENYKGLIAIYDTRRTPIVSASLVGFIRGPGENPKALSFSFHDKFKQGPLLSVCWSTGFCCTYPLIFRSHVLP”, the protein production is reported as “failed”. With “MASGKSIMGGLPPLKPGEKLPRLQTVIATSPENPAGDPNIRPQQAGEAAGKVIGGGLGVLLVTVCVLLLLGPVLWAPGWAGLRVARFLSGPWQPWLAGFAAFVAVAVLQTFLLIQRHPALRYPIVTLFSVLWVGGLWLEFNSPRHDWVTTAPTLQMPGPWSWALIISGSVVYAGIYLLALAPVGKSRWARRWQLLK” the protein production was “failed”. In the case of “MASGLFENDGIKDNKARDFFYSHSSLIVFFLLLLGFGYYLGKLLFGGSSLEVYLDLRDKHERLQQEITELQSKNVRLQKRLFELKELRPRD”, the protein production is reported as “failed”. In the case of “MASGLSEIGSTKMFDGYNKRYKHFSETLGCSMTFSIYFPPSASSSHKSPVLYWLSGLTCTDENFIIKSGAQRAASTHGIALVAPDTSPRGLNVEGEADSYDFGVGAGFYLNATQEKWKNWRMYDYVVKELPKLLSENFSQLDTTKASISGHSMGGHGALTIYLRNLDKYKSVSAFAPITNPINCAWGQKAFTNYLGDNKAAWEEYDATCLISKYNNLSATILIDQGENDQFYPDQLLPSKFEEACKKVNAPLLLRLHPGYDHSYYFIATFIEDHISHHAQALEL”, the protein production is reported as “failed”. In the case of “MASGMGVDENCVARFNELKIRKTVKWIVFKIENTKIVVEKDGKGNADEFRGALPANDCRFGVYDCGNKIQFVLWCPDNAPVKPRMTYASSKDALLKKLDGATAVALEAHEMGDLAALA”, the protein production is reported as “failed”. In the case of “MASGNAGDTACLPAMVQAASLTAQQLLQQHWGYPAFRPGQAEIVEAIAQGRDCLIIWPTGGGKSLCFQVPALLRSGLTIVVTPLIALIENQVADLQARGIAAACLHSQMAPRDRKAVLQKLPQLKLLYLAPETLLSTPLWSRLTEPTIAIAGLILDEAHCLLQWGESFRPTYLRLGAIRPALVRLGKPSFPIAAFTATAYPQEVARLSQILQLQQPQRHQRDPYRSNLVLAVKTVWTPRQRQNQLLDFLAKHQGQSGLIYLRSRRDCETWADRLRNRGYRCAAYHAGVSDRERRQIEQAWQTGSLPFAVCSSAFGMGIDKRDVRWVAHVHPPLLLSEYLQEVGRGGRDQQRAQGLTLVSEPSGWLDPSDRDRWQGFQQATQQQWEAAQRQAQQLPASGDLRSLASSNELDLALAYLQRLGQLQWLDPFRYRRRAIPTPRPAPRLDLQPLRQFLYSRDCRWRSLLQSFGSNHPTTWRCGHCDRCQTTG”, the protein production is reported as “failed”. For “MASGSMSSYGSGSWTVKQNKAFERALAVYDQDTPDRWHNVARAVGGKTPEEAKRQYDLLVRDIESIENGHVPFPDYKTTTGNSNRGRLRDEEKRMRSMKLQ”, the protein production was “failed”. In the case of “MASHDHHHHHHDHEHDHEKSDGGEGKASWVGKDGKVYHSHDGLAPHSHEPIYSPGYFSRRAPPLHDRNFSERAFTVGIGGPVGTGKTALMLALCRFLRDKYSLAAVTNDIFTKEDGEFLVKNGALPEERIRAVETGGCPHAAIREDISINLGPLEELSNLFKADLLLCESGGDNLAANFSRELADYIIYIIDVSAGDKIPRKGGPGITQADLLVINKTDLAAAVGADLSVMERDSLRMRDGGPFVFAQVKHGLGVEEIVNHVMHSWEHATGKKRQ”, the protein production is reported as “not failed”. With “MASHQEQSYKAGETRGKAQEKTGEAMGTMGDKTQAAKDKTQETAQSAQQKAHETAQSAKDKTSQAAQTTQERAQESKDKTGSYMSETGEAIKNKAHDAAEYTKETAEAGKEKTSGILGQTGEQVKQMAMGATDAVKHTLGLRTDEGNKEHVSSAPSTTTTTTTRETQRK” the protein production was “failed”. With “MASILFFEKPGCQNNTRQKAWLELSGHTVDAVNILEYAWTKEELSLYLGENPISACFNPAAPEVKTGSMKPELLNKEDALDAMIKKPLLIRRPLLKIGNHYLQGFDTAVLRTIIS” the protein production was “failed”. For “MASKPVDVMVVNFNTAGLLQPMFDALRRADSERLASYLVVDNASRDDSVQRMAQVCPEALLLSNKQNVGFGRANNQLLAHLKGKYALLLNTDAFVAADSLQKTLDYMDAHPECGVLGVRLEGRDGDLQPSCRYFPTPLNVFVGRTGLGRFFPGVKMVDDMNWDHASVRECDWLPGCFYLVRREVLDKVGLFDPRYFLYYEEVDHCKRVKEAGWKVVFYPHTTVVHIGGESSKSVAELEAASRQISSYQIESELLYFRKHHGVAGLALHMLLVTLGDLVLALKALLKRRGWGAIQACWRHCRATWSLLFKTRYASQPTR”, the protein production was “failed”. For “MASLLQGFEEVQLVKPVGKTVLTVTDSAIRFNKATAEALGFPAYVKVLINDKTRQIAVTPTTAKAGNAIKFSKPEGKQAASVSVKEATFIEAVKAYLTLPEAPEGEIAYQSVNGTAYPESKTVIFDVANATAGTMKLEHHHHHH”, the protein production was “not failed”. For “MASLSELAVFIAVAEQGSFVGAGRVLGVSASAVGKRISRLEVDLGVRLLQRNTRSLALTAEGETVLSRGRSLLDEAESLRVVLERSSRQPGGVLRLSLPPIGGVLMAELAAFRQRYPEVALELDYSERNVDIIEEGFDAAIRVGAGDDGKLRSLALPGFRRLIVAAPDYLVRHGQPRSAAQLAEHQLIHYRSPNSGKLEAWPLVNAELPRALVCNSVHARLDFALQGQGIACLPDISIRRELEDGSLRPLLGSENGEKVVLRLLWPSSRGLSARMEAFLGFMRERSGAAPCENFKVRA”, the protein production was “failed”. For “MASLSYPKTTMQIQLGANLKPYHTFGIEQLAAQLVVAESIDDLKALYCSAEWASLPKLIIGKGSNMLFTCHYTGMIVVNRLNGIEHQQDDDYHRLHVAGGEDWPSLVSWCVEQGIGGLENLALIPGCAGSAPIQNIGAYGVEFKDVCDYVEYLCLETGTVKRLTMEECQFGYRDSIFKHQLYQKAVVTAVGLKFAKAWQPIIQYGPLKDLSSDCAIHDVYQRVCATRMEKLPDPAVMGNAGSFFKNPVISQQAFARLQIEHPDVVAYPAEQGVKVAAGWLIDQAGLKGHQIGGAKVHPKQALVIVNTGDASAQDVLMLAADIQQRVFNCYGIELEHEVRFIGESEETNLKQWMSEQA”, the protein production was “not failed”. For “MASMDVEEFIGQNRQLADRVEAFRGFSESDKHWKGRREFIFRNMADFPEPQVDHLLALSMVWQNHVFMGCRYSSELLQRVMEMAEGIEVEDAPVFKTRDEIIRQQKQR”, the protein production was “failed”.
